Data as given in patent US20200199241A1 (Chugai, published 2020).

Experiments:
Assay in all cases: SPR (Biacore);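 further: antibody variants captured on sensor chip, Fcγ receptor flowed over at 25 °C, bound receptor normalized to amount of captured antibody, expressed relative to reference antibody set as 100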
human FcγRIIIa(F) = molecular target: T1, human FcγRIIIa(F) (human, UniProt P08637 17-208, limits assumed)
T1 construct: also called FcgRIIIaF; allotype F158

human FcγRIIa(H) = molecular target: T2, human FcγRIIa(H) (human, UniProt P12318 36-217)
T2 construct: also called FcgRIIaH; FcγRIIa type H
T2 sequence: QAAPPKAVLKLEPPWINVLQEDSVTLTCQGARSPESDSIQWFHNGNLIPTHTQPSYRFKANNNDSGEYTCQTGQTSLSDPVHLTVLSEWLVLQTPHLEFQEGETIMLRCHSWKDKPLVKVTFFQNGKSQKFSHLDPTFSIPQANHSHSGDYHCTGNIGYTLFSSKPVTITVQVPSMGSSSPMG

human FcγRIIb = molecular target: T3, human FcγRIIb (human, UniProt P31994 43-217, limits assumed)
T3 construct: also called FcgRIIb
T3 sequence: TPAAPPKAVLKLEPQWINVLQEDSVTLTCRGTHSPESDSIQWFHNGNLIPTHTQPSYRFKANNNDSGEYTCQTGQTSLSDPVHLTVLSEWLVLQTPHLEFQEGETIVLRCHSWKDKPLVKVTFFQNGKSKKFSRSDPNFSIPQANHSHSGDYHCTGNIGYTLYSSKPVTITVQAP

human FcγRIIa(R) = molecular target: T4, human FcγRIIa(R) (human, UniProt P12318 36-217)
T4 construct: also called FcgRIIaR; FcγRIIa type R
T4 chain: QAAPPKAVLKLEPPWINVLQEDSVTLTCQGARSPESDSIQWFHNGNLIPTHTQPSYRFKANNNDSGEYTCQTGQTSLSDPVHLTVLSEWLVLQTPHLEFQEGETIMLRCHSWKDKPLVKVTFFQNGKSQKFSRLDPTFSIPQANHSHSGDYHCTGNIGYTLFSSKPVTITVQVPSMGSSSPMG

human FcγRIa = molecular target: T5, human FcγRIa (human, UniProt P12314 16-292, limits assumed)
T5 construct: also called FcgRIa; FcγRI (CD64)
T5 sequence (P12314 16-292 limits assumed): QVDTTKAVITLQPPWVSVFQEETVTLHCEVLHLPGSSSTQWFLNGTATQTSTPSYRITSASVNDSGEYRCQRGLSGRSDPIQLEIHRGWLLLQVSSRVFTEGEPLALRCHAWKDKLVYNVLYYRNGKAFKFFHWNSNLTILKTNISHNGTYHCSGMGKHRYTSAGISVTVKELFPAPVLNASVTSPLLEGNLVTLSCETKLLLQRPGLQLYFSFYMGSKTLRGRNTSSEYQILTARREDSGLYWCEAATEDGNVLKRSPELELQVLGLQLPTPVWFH

T1 sequence (P08637 other isoform, or with tags, fused parts or gaps limits assumed): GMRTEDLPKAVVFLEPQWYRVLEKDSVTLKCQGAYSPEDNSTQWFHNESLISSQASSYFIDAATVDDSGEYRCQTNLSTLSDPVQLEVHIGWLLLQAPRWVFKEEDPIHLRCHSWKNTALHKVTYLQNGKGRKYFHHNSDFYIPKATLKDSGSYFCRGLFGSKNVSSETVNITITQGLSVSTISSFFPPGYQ

B1: GpH7-B3 variant D265N/GpL16-k0 (antibody, human IgG1)
heavy: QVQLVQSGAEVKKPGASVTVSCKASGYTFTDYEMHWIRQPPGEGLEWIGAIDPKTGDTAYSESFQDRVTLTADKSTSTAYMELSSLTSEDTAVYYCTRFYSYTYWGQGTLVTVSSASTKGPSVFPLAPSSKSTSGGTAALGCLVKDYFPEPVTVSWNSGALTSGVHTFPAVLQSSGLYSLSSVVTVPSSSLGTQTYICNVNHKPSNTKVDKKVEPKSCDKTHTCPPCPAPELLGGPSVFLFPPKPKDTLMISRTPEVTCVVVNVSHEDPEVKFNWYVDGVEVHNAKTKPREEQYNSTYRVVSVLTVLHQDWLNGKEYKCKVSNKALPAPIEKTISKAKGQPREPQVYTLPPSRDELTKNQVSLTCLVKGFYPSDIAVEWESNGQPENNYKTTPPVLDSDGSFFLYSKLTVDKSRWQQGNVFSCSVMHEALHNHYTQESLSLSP
light: DIVMTQSPLSLPVTPGEPASISCQASESLVHSNRNTYLHWYLQKPGQSPQLLIYKVSNRFSGVPDRFSGSGSGTDFTLKISRVEAEDVGVYYCSQNTHVPPTFGQGTKVEIE
notes: copies: 2 + 2
**Q.** Which relative binding activity (human FcγRIIIa(F)) does the source give for B1 here?
**A.** -1 % of GpH7-B3/GpL16-k0

**Q.** And the relative binding activity (human FcγRIIa(H))?
**A.** 0 % of GpH7-B3/GpL16-k0

**Q.** What about the relative binding activity (human FcγRIIb) of the same binder?
**A.** -2 % of GpH7-B3/GpL16-k0

**Q.** And the relative binding activity (human FcγRIIa(R))?
**A.** -1 % of GpH7-B3/GpL16-k0

**Q.** What about the relative binding activity (human FcγRIa) of the same binder?
**A.** 3 % of GpH7-B3/GpL16-k0

B2: GpH7-B3 variant D265V/GpL16-k0 (antibody, human IgG1)
heavy: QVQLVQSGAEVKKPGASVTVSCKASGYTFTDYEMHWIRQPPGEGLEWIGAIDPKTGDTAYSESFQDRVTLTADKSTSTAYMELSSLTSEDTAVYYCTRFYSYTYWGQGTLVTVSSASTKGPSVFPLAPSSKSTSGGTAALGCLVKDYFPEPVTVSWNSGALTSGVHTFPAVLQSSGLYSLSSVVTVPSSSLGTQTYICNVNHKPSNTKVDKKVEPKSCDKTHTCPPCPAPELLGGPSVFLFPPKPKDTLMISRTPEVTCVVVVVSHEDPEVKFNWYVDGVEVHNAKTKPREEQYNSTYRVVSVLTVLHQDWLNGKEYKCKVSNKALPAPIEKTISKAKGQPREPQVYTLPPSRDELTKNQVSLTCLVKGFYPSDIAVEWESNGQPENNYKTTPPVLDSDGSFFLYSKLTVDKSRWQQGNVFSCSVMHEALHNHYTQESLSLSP
light: DIVMTQSPLSLPVTPGEPASISCQASESLVHSNRNTYLHWYLQKPGQSPQLLIYKVSNRFSGVPDRFSGSGSGTDFTLKISRVEAEDVGVYYCSQNTHVPPTFGQGTKVEIE
notes: copies: 2 + 2
**Q.** What does the source list for B2?
**A.** relative binding activity (human FcγRIIIa(F)): -1 % of GpH7-B3/GpL16-k0; relative binding activity (human FcγRIIa(H)): 0 % of GpH7-B3/GpL16-k0; relative binding activity (human FcγRIIb): -1 % of GpH7-B3/GpL16-k0; relative binding activity (human FcγRIIa(R)): -1 % of GpH7-B3/GpL16-k0; relative binding activity (human FcγRIa): 3 % of GpH7-B3/GpL16-k0

B3: GpH7-B3 variant E269F/GpL16-k0 (antibody, human IgG1)
heavy: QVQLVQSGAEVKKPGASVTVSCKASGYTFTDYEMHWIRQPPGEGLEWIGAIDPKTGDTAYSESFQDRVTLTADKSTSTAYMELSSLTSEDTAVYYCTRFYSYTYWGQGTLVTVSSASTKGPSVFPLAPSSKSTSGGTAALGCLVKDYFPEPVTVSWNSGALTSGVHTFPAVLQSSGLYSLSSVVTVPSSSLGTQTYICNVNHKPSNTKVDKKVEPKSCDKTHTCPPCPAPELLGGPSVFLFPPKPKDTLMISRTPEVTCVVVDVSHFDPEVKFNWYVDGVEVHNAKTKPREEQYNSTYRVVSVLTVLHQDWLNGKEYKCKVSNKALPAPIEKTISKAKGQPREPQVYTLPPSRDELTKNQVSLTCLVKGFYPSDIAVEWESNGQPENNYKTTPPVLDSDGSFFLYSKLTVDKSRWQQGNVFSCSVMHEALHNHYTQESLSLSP
light: DIVMTQSPLSLPVTPGEPASISCQASESLVHSNRNTYLHWYLQKPGQSPQLLIYKVSNRFSGVPDRFSGSGSGTDFTLKISRVEAEDVGVYYCSQNTHVPPTFGQGTKVEIE
notes: copies: 2 + 2
**Q.** How did the relative binding activity (human FcγRIIIa(F)) turn out when B3 was run?
**A.** 10 % of GpH7-B3/GpL16-k0

**Q.** What about the relative binding activity (human FcγRIIa(H)) of the same binder?
**A.** 41 % of GpH7-B3/GpL16-k0

**Q.** And the relative binding activity (human FcγRIIb)?
**A.** 13 % of GpH7-B3/GpL16-k0

**Q.** And the relative binding activity (human FcγRIIa(R))?
**A.** 19 % of GpH7-B3/GpL16-k0

**Q.** And the relative binding activity (human FcγRIa)?
**A.** 99 % of GpH7-B3/GpL16-k0

B4: GpH7-B3 variant D270G/GpL16-k0 (antibody, human IgG1)
heavy: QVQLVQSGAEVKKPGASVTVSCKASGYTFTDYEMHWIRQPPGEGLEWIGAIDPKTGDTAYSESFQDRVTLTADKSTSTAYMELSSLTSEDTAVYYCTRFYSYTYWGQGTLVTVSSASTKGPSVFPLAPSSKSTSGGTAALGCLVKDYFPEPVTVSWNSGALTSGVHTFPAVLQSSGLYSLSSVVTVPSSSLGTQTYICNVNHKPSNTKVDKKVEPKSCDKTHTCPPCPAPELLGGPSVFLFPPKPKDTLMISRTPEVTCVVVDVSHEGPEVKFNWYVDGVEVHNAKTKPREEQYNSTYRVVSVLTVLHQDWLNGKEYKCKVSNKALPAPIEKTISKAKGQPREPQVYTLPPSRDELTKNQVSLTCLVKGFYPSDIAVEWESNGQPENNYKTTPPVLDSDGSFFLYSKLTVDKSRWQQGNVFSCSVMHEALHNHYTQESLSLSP
light: DIVMTQSPLSLPVTPGEPASISCQASESLVHSNRNTYLHWYLQKPGQSPQLLIYKVSNRFSGVPDRFSGSGSGTDFTLKISRVEAEDVGVYYCSQNTHVPPTFGQGTKVEIE
notes: copies: 2 + 2
**Q.** Which relative binding activity (human FcγRIIIa(F)) does the source give for B4 here?
**A.** 6 % of GpH7-B3/GpL16-k0

**Q.** What about the relative binding activity (human FcγRIIa(H)) of the same binder?
**A.** 29 % of GpH7-B3/GpL16-k0

**Q.** And the relative binding activity (human FcγRIIb)?
**A.** 3 % of GpH7-B3/GpL16-k0

**Q.** And the relative binding activity (human FcγRIIa(R))?
**A.** 3 % of GpH7-B3/GpL16-k0

**Q.** And the relative binding activity (human FcγRIa)?
**A.** 82 % of GpH7-B3/GpL16-k0

B5: GpH7-B3 variant E269M/GpL16-k0 (antibody, human IgG1)
heavy: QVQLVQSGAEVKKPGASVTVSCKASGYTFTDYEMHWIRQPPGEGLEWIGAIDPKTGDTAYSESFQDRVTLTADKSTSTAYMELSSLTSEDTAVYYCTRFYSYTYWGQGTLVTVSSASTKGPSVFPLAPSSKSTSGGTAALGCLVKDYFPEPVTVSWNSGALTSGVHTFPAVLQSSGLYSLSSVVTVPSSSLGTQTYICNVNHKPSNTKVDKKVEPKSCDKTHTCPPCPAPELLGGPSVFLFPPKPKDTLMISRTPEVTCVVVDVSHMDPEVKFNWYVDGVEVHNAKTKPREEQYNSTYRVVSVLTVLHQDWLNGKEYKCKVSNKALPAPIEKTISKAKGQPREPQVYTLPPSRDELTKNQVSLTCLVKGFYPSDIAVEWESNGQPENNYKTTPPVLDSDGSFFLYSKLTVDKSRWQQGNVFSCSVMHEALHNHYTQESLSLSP
light: DIVMTQSPLSLPVTPGEPASISCQASESLVHSNRNTYLHWYLQKPGQSPQLLIYKVSNRFSGVPDRFSGSGSGTDFTLKISRVEAEDVGVYYCSQNTHVPPTFGQGTKVEIE
notes: copies: 2 + 2
**Q.** Which results are given for B5?
**A.** relative binding activity (human FcγRIIIa(F)): 20 % of GpH7-B3/GpL16-k0; relative binding activity (human FcγRIIa(H)): 50 % of GpH7-B3/GpL16-k0; relative binding activity (human FcγRIIb): 15 % of GpH7-B3/GpL16-k0; relative binding activity (human FcγRIIa(R)): 23 % of GpH7-B3/GpL16-k0; relative binding activity (human FcγRIa): 98 % of GpH7-B3/GpL16-k0

B6: GpH7-B3 variant E269A/GpL16-k0 (antibody, human IgG1)
heavy: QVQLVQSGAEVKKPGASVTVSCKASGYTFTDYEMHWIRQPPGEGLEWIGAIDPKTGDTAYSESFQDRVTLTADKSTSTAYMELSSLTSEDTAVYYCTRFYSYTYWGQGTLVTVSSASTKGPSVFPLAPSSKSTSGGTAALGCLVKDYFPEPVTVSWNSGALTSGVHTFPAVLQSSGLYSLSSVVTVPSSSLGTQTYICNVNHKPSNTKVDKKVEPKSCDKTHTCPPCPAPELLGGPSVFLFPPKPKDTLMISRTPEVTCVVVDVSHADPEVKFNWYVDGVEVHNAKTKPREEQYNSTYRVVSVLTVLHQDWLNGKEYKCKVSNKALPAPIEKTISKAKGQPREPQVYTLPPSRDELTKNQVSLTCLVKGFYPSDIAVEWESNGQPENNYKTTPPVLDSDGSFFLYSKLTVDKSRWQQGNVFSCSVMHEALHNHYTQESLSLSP
light: DIVMTQSPLSLPVTPGEPASISCQASESLVHSNRNTYLHWYLQKPGQSPQLLIYKVSNRFSGVPDRFSGSGSGTDFTLKISRVEAEDVGVYYCSQNTHVPPTFGQGTKVEIE
notes: copies: 2 + 2
**Q.** B6 was tested. Which relative binding activity (human FcγRIIIa(F)) did it give?
**A.** 28 % of GpH7-B3/GpL16-k0

**Q.** And the relative binding activity (human FcγRIIa(H))?
**A.** 51 % of GpH7-B3/GpL16-k0

**Q.** And the relative binding activity (human FcγRIIb)?
**A.** 13 % of GpH7-B3/GpL16-k0

**Q.** What about the relative binding activity (human FcγRIIa(R)) of the same binder?
**A.** 20 % of GpH7-B3/GpL16-k0

**Q.** And the relative binding activity (human FcγRIa)?
**A.** 93 % of GpH7-B3/GpL16-k0

B7: GpH7-B3 variant D270R/GpL16-k0 (antibody, human IgG1)
heavy: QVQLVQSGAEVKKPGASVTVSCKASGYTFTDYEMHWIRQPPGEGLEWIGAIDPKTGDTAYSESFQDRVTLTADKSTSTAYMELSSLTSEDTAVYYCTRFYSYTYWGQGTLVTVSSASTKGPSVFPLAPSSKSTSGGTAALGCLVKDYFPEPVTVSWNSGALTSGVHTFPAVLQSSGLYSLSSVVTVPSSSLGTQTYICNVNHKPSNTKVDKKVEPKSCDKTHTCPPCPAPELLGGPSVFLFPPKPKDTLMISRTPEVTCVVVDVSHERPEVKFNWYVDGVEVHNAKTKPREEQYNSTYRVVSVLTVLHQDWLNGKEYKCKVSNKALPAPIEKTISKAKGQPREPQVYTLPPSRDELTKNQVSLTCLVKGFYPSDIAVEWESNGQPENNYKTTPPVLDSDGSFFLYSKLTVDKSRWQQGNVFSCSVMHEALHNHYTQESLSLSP
light: DIVMTQSPLSLPVTPGEPASISCQASESLVHSNRNTYLHWYLQKPGQSPQLLIYKVSNRFSGVPDRFSGSGSGTDFTLKISRVEAEDVGVYYCSQNTHVPPTFGQGTKVEIE
notes: copies: 2 + 2
**Q.** B7 was tested. Which relative binding activity (human FcγRIIIa(F)) did it give?
**A.** 2 % of GpH7-B3/GpL16-k0

**Q.** And the relative binding activity (human FcγRIIa(H))?
**A.** 11 % of GpH7-B3/GpL16-k0

**Q.** What about the relative binding activity (human FcγRIIb) of the same binder?
**A.** -5 % of GpH7-B3/GpL16-k0

**Q.** What about the relative binding activity (human FcγRIIa(R)) of the same binder?
**A.** -5 % of GpH7-B3/GpL16-k0

**Q.** And the relative binding activity (human FcγRIa)?
**A.** 45 % of GpH7-B3/GpL16-k0

B8: GpH7-B3 variant D265Y/GpL16-k0 (antibody, human IgG1)
heavy: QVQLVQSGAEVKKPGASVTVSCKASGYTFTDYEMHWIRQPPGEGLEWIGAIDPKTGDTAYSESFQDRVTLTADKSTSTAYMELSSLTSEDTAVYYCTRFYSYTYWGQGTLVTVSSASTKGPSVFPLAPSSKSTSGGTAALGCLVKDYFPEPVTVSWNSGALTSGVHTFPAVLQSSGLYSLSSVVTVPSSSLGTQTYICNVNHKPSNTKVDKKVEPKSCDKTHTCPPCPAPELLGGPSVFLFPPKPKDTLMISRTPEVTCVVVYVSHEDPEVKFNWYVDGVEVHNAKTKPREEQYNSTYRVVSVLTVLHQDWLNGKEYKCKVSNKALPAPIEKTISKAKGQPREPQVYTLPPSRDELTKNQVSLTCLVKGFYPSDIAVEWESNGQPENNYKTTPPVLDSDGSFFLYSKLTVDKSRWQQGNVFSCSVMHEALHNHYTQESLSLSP
light: DIVMTQSPLSLPVTPGEPASISCQASESLVHSNRNTYLHWYLQKPGQSPQLLIYKVSNRFSGVPDRFSGSGSGTDFTLKISRVEAEDVGVYYCSQNTHVPPTFGQGTKVEIE
notes: copies: 2 + 2
**Q.** How did the relative binding activity (human FcγRIIIa(F)) turn out when B8 was run?
**A.** -1 % of GpH7-B3/GpL16-k0

**Q.** What about the relative binding activity (human FcγRIIa(H)) of the same binder?
**A.** 0 % of GpH7-B3/GpL16-k0

**Q.** What about the relative binding activity (human FcγRIIb) of the same binder?
**A.** -2 % of GpH7-B3/GpL16-k0

**Q.** What about the relative binding activity (human FcγRIIa(R)) of the same binder?
**A.** -1 % of GpH7-B3/GpL16-k0

**Q.** What about the relative binding activity (human FcγRIa) of the same binder?
**A.** 5 % of GpH7-B3/GpL16-k0

B9: GpH7-B3 variant D265W/GpL16-k0 (antibody, human IgG1)
heavy: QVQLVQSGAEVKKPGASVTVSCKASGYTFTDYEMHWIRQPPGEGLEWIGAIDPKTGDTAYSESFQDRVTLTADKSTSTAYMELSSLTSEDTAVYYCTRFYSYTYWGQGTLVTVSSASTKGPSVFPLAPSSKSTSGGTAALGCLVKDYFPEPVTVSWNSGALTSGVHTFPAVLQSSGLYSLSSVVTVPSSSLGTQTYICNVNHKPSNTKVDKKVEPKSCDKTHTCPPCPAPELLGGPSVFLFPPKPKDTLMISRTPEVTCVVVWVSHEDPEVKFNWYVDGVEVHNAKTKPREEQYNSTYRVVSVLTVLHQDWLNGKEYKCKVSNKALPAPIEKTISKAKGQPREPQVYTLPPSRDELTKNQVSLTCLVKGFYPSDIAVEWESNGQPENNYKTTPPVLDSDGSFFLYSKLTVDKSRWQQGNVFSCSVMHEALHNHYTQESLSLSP
light: DIVMTQSPLSLPVTPGEPASISCQASESLVHSNRNTYLHWYLQKPGQSPQLLIYKVSNRFSGVPDRFSGSGSGTDFTLKISRVEAEDVGVYYCSQNTHVPPTFGQGTKVEIE
notes: copies: 2 + 2
**Q.** For B9, which relative binding activity (human FcγRIIIa(F)) is on record?
**A.** -2 % of GpH7-B3/GpL16-k0

**Q.** What about the relative binding activity (human FcγRIIa(H)) of the same binder?
**A.** 0 % of GpH7-B3/GpL16-k0

**Q.** And the relative binding activity (human FcγRIIb)?
**A.** -2 % of GpH7-B3/GpL16-k0

**Q.** What about the relative binding activity (human FcγRIIa(R)) of the same binder?
**A.** -1 % of GpH7-B3/GpL16-k0

**Q.** And the relative binding activity (human FcγRIa)?
**A.** 3 % of GpH7-B3/GpL16-k0

B10: GpH7-B3 variant D265R/GpL16-k0 (antibody, human IgG1)
heavy: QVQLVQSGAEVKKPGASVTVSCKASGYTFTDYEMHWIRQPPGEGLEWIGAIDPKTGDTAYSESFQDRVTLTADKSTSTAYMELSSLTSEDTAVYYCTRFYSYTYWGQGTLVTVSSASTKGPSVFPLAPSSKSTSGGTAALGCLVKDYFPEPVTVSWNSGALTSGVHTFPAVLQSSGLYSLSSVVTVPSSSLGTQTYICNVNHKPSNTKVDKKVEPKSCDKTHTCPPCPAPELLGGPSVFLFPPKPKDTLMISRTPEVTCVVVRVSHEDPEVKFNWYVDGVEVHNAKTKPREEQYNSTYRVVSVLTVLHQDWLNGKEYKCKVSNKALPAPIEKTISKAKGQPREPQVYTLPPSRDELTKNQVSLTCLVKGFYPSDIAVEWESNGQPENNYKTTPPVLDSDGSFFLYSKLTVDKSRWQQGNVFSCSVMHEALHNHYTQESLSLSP
light: DIVMTQSPLSLPVTPGEPASISCQASESLVHSNRNTYLHWYLQKPGQSPQLLIYKVSNRFSGVPDRFSGSGSGTDFTLKISRVEAEDVGVYYCSQNTHVPPTFGQGTKVEIE
notes: copies: 2 + 2
**Q.** Which results are given for B10?
**A.** relative binding activity (human FcγRIIIa(F)): -1 % of GpH7-B3/GpL16-k0; relative binding activity (human FcγRIIa(H)): 0 % of GpH7-B3/GpL16-k0; relative binding activity (human FcγRIIb): -1 % of GpH7-B3/GpL16-k0; relative binding activity (human FcγRIIa(R)): -1 % of GpH7-B3/GpL16-k0; relative binding activity (human FcγRIa): 5 % of GpH7-B3/GpL16-k0
